Laboratory results: US20260232830A1 (JIANGSU HENGRUI PHARMACEUTICALS, published 2026)
Values belong to the binder of their own block, whether it stands above or below them.

What was measured:
[1] = target: T1, MUC1-C-L-6×His (His-tagged human MUC1-C protein extracellular domain) (human, UniProt P15941 961-1152); experiment: SPR Biacore 8K, antibody on Protein A chip, 1:1 fit
T1 construct: template human MUC1 UniProt P15941; expressed in 293 cells; also called hMUC1-C-L-his; MUC1-C-L-His

[2] = target: T2, Cynomolgus MUC1 his (Cat. #MU1-C52H5, Acro) (cynomolgus); experiment: SPR Biacore T200, antibody on Protein A chip, 1:1 fit
T2 construct: bought reagent; also called Cyno MUC1-His

[3] = target: T3, human EGFR-His antigen (human, UniProt P00533 25-645); experiment: SPR Biacore 8K, antibody on Protein A chip; Ag1 hMUC1-C-His bound first, Ag2 hEGFR-His
T3 construct: also called hEGFR-His

[4] = target: T4, cynomolgus EGFR-his (Cat. #90285-C08H, Sino Biological) (cynomolgus, UniProt A0A2K5WK39 25-645); experiment: SPR Biacore T200, antibody on Protein A chip, 1:1 fit
T4 construct: bought reagent; also called Cyno EGFR-His

[5] = target: T3, human EGFR-His antigen; experiment: as above
[6] = target: T3, human EGFR-His antigen; experiment: SPR Biacore 8K, antibody on Protein A chip; Ag1 blank, Ag2 hEGFR-His
[7] = target: T3, human EGFR-His antigen; experiment: SPR Biacore 8K, antibody on Protein A chip, 1:1 fit

B1: M4-H1L1 (antibody, human IgG1, kappa)
heavy: not shown
light: DIQMTQSPSSLSASVGDRVTITCSASSSVFNMNWYQQKPGKSPKLWIYDISKLASGVPSRFSGSGSGTDFTLTISSLQPEDFATYYCQQRSFYPPTFGGGTKVEIKRTVAAPSVFIFPPSDEQLKSGTASVVCLLNNFYPREAKVQWKVDNALQSGNSQESVTEQDSKDSTYSLSSTLTLSKADYEKHKVYACEVTHQGLSSPVTKSFNRGEC
notes: humanized, human IgG1
Kd [1]: 5.27 nM
Kd [2]: 18.9 nM

Kd [3]: 19.6 nM
Kd [4]: 243 nM
Kd [5]: 14.8 nM
Kd [2]: 17.8 nM
Kd [6]: 18 nM
Kd [7]: 10.4 nM
koff [7]: 0.00144 s⁻¹
kon [7]: 139000 M⁻¹ s⁻¹
B2: M4H1L1-ZalH4 (bispecific antibody, human IgG1, kappa)
heavy: not shown
light: B1 light
chain 1: not shown
chain 2: DIQLTQSPSSLSASVGDRVTITCRASQDISSALVWYQQKPGKAPKLLIYDASSLESGVPSRFSGSESGTDFTLTISSLQPEDFATYYCQQFNSYPLTFGGGTKVEIKGGGGSSGAPRFLTRPKASVVSVGKDATLSCQIVGNPFPQVSWEKDKQPVTAGVRFRLAQDGDLYRLKILDLQLSDSGQYVCRARNAHGEAFACLGLQVDAEA
notes: also called anti-EGFR-MUC1 bispecific antibody
